Assay results: US8859723 (dated 2014)
Like-named read-outs stand apart in the source and are kept apart here.

T1: hDMX (In-house, 40 kD) (human, UniProt O15151 1-120)
T1 chain: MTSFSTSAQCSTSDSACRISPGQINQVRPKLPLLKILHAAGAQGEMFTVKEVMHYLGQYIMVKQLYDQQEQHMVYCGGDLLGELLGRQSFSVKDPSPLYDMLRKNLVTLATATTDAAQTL


Legend:
hDM2 (In-house, 41 kD) [1] = target: T2, hDM2 (In-house, 41 kD) (human, UniProt Q00987 1-125); test: FP competition
hDMX (In-house, 40 kD) [2] = target: T1, hDMX (In-house, 40 kD); test: FP competition
hDM2 (In-house, 41 kD) [3] = target: T2, hDM2 (In-house, 41 kD); test: FP competition; remark: listed apart in the source
hDMX (In-house, 40 kD) [4] = target: T1, hDMX (In-house, 40 kD); test: FP competition
SP-44 = test: Affinity selection MS
SP-5 = test: Affinity selection MS

IC50 (hDM2 (In-house, 41 kD) [3]) | IC50 (hDMX (In-house, 40 kD) [4]) | Binder | other results
– | – | ETFAAYWAQLAS (not fully specified) [SP-508] | IC50 (hDM2 (In-house, 41 kD) [1]): 22.8 nM; IC50 (hDMX (In-house, 40 kD) [2]): 88.8 nM
103 nM | – | ETFAAYWAQLAA (not fully specified) [SP-709] | –
– | 310 nM | LTFAFYWAQLAA (not fully specified) [SP-604] | –
– | 379 nM | WTFALYWSQLAS (not fully specified) [SP-696] | –
– | – | GST-hDM2 (other) MCNTNMSVPTDGAVTTSQIPASEQETLVRPKPLLLKLLKSVGAQKDTYTMKEVLFYLGQYIMTKRLYDEKQQHIVYCSNDLLGDLFGVPSFSVKEHRKIYTMIYRNLVVVNQQESSDSGTSVSEN | Kd (SP-44): 25 nM; Kd (SP-5): 25 nM
68.3 nM | – | LTFAVYWAQLAA (not fully specified) [SP-623] | –
137 nM | – | LTFAAYWAALAS (not fully specified) [SP-673] | –
– | 673 nM | LTFAAYWAQFAS (not fully specified) [SP-586] | –
– | – | GST-hDMX (other) MTSFSTSAQCSTSDSACRISPGQINQVRPKLPLLKILHAAGAQGEMFTVKEVMHYLGQYIMVKQLYDQQEQHMVYCGGDLLGELLGRQSFSVKDPSPLYDMLRKNLVTLATATTDAAQTL | Kd (SP-44): 180 nM; Kd (SP-5): 90 nM
118 nM | 395 nM | LTFAAYWVQLAS (not fully specified) [SP-681] | –
82.2 nM | 157 nM | LTFAAYWSQLAA (not fully specified) [SP-698] | –
104 nM | – | ITFAFYWAQLAS (not fully specified) [SP-684] | –
63.6 nM | – | LTFAEYWAQLAA (not fully specified) [SP-671] | –
